“And” between values parts separate entries of the source, which are not always exact repeats. Identical values can stand only once. Square brackets hold non-standard residues; d marks the D form. Ends that are not written are not given here.
What follows are binders tested against Tau40 P301L protein (human) (assay: cell-based or functional assay).

Row | Binder | IC50, Tau40 assay (ThT)
1 | [dF][dE][dI][dR][dL][dH][dH][dW] [feirlhhw] | 4.2 µM
2 | [dF][dH][dI][dE][dI][dR][dH][dF] [fhieirhf] | 6.06 µM
3 | [dF][dR][dI][dK][dL][dK][dW][dH] [friklkwh] | 3.88 µM and 3.9 µM
4 | [dF][dR][dV][dK][dI][dE][dH][dW] [frvkiehw] | 5.25 µM
5 | [dL][dA][dI][dR][dI][dH][dY] [lairihy] | 3.98 µM
6 | [dK][dV][dR][dW][dW][dW][dR][dL] [kvrwwwrl] | 3.84 µM
7 | [dK][dI][dR][dI][dH][dY][dH][dL] [kirihyhl] | 4.59 µM
8 | [dF][dE][dL][dR][dI][dK][dH][dY] [felrikhy] | 6.57 µM and 12 µM
9 | [dK][dW][dR][dW][dY][dR][dR] [kwrwyrr] | 3.55 µM
10 | [dK][dL][dK][dL][dR][dW] [klklrw] | 5.92 µM and 5.99 µM
11 | [dI][dH][dY][dH][dR][dI][dK][dL] [ihyhrikl] | 5.12 µM
12 | [dL][dE][dI][dK][dI][dR][dH][dW] [leikirhw] | 5.38 µM and 8.72 µM
13 | [dF][dK][dL][dW][dL][dR][dW][dF] [fklwlrwf] | 4.19 µM and 7.03 µM
14 | [dE][dK][dI][dR][dI][dH][dY] [ekirihy] | 5.58 µM
15 | [dL][dE][dI][dR][dI][dH][dY][dH] [leirihyh] | 4.07 µM
16 | [dF][dH][dL][dH][dL][dK][dH][dW] [fhlhlkhw] | 3.74 µM
17 | [dF][dE][dL][dK][dL][dR][dW][dH] [felklrwh] | 4.94 µM and 5.3 µM
18 | [dA][dK][dI][dR][dI][dH][dY][dH] [akirihyh] | 3.54 µM
19 | [dF][dR][dL][dR][dI][dH][dW][dF] [frlrihwf] | 3.77 µM and 7.09 µM
20 | [dL][dD][dL][dR][dF][dK][dL][dY] [ldlrfkly] | 3.43 µM
21 | [dH][dK][dI][dR][dI][dH][dY][dH] [hkirihyh] | 3.84 µM
22 | [dF][dR][dL][dW][dI][dH][dW][dF] [frlwihwf] | 4.39 µM and 6.88 µM
23 | [dK][dL][dK][dW][dL][dW] [klkwlw] | 4.41 µM
24 | [dK][dI][dR][dI][dH][dY][dH] [kirihyh] | 4.92 µM
25 | [dH][dR][dF][dK][dV][dQ][dL][dY] [hrfkvqly] | 4.03 µM

Results, then the binder that gave them:

Row | IC50, Tau40 assay (ThT) | Binder
26 | 6.46 µM | [dW][dR][dL][dL][dV][dR][dW][dW] [wrllvrww]
27 | 5.89 µM and 9.68 µM | [dL][dR][dI][dE][dI][dE][dW][dH] [lrieiewh]
28 | 4.71 µM | [dY][dH][dV][dK][dF][dR][dH][dW] [yhvkfrhw]
29 | 3.43 µM | [dR][dL][dR][dL][dK][dW] [rlrlkw]
30 | 5.99 µM and 7.56 µM | [dW][dR][dL][dW][dI][dH][dW][dW] [wrlwihww]
31 | 3.64 µM | [dL][dK][dI][dE][dI][dH][dY][dH] [lkieihyh]
32 | 3.71 µM and 4.76 µM | [dR][dL][dR][dV][dR][dW] [rlrvrw]
33 | 4.69 µM | [dY][dR][dL][dK][dV][dR][dW] [yrlkvrw]
34 | 5.03 µM | [dW][dH][dV][dR][dI][dR][dH][dV] [whvrirhv]
35 | 4.95 µM | [dL][dK][dI][dR][dI][dH] [lkirih]
36 | 4.57 µM | [dL][dK][dI][dF][dI][dH][dY][dH] [lkifihyh]
37 | 3.54 µM | [dW][dK][dV][dQ][dV][dR][dY][dW] [wkvqvryw]
38 | 6.5 µM | [dY][dR][dI][dR][dI][dN][dH][dL] [yririnhl]
39 | 5.51 µM | [dW][dL][dK][dV][dR][dW] [wlkvrw]
40 | 4.53 µM | [dL][dK][dI][dR][dI][dE][dH][dY] [lkiriehy]
41 | 5.62 µM | [dR][dL][dK][dW][dR][dW] [rlkwrw]
42 | 6.41 µM | [dL][dK][dI][dR][dI][dH][dA][dH] [lkirihah]
43 | 3.54 µM | [dW][dW][dL][dK][dL][dR][dW] [wwlklrw]

Row | IC50, Tau40 assay (ThT) | Binder
44 | 6.53 µM and 7 µM | [dW][dR][dF][dH][dI][dH][dF][dY] [wrfhihfy]
45 | 4.09 µM and 5.61 µM | [dW][dW][dL][dR][dI][dH][dW][dW] [wwlrihww]
46 | 5.48 µM and 5.5 µM | [dW][dR][dL][dR][dV][dW] [wrlrvw]
47 | 5.5 µM | [dW][dR][dH][dK][dV][dR][dW] [wrhkvrw]
48 | 6.48 µM | [dL][dK][dV][dR][dW][dW] [lkvrww]
49 | 6.57 µM | [dW][dQ][dL][dQ][dV][dR][dW] [wqlqvrw]
50 | 5.86 µM | [dW][dR][dL][dK][dH][dR][dW] [wrlkhrw]
51 | 4.13 µM | [dW][dK][dL][dK][dL][dR][dW][dW] [wklklrww]
52 | 6.39 µM | [dW][dH][dV][dR][dL][dN][dH][dL] [whvrlnhl]
53 | 3.62 µM | [dW][dL][dK][dI][dV][dW] [wlkivw]
54 | 3.59 µM | [dR][dI][dH][dY][dH][dI][dK][dL] [rihyhikl]
55 | 3.7 µM | [dR][dW][dK][dV][dR][dW] [rwkvrw]
56 | 6.3 µM | [dY][dR][dI][dR][dL][dE][dH][dV] [yrirlehv]
57 | 5.13 µM | [dY][dR][dV][dR][dI][dQ][dH][dI] [yrvriqhi]
58 | 3.56 µM and 7.39 µM | [dW][dK][dL][dK][dL][dR][dW] [wklklrw]
59 | 4.86 µM | [dW][dN][dL][dK][dV][dN][dW] [wnlkvnw]
60 | 3.76 µM and 5.41 µM | [dW][dR][dL][dR][dI][dW][dW][dW] [wrlriwww]
61 | 4.44 µM and 4.64 µM | [dL][dH][dI][dK][dL][dK][dH][dF] [lhiklkhf]
